Data published in US20210115124A1 (Genentech, published 2021).
Where a chain is given by its changes, count along the chain named. Numbers in names are those of the source.

How the values were obtained:
[1] = target: T1, human VEGF (hVEGF) (human, UniProt P15692 181-395); assay: SPR (FIG. 10D)
T1 construct: also called VEGF-A
T1 sequence: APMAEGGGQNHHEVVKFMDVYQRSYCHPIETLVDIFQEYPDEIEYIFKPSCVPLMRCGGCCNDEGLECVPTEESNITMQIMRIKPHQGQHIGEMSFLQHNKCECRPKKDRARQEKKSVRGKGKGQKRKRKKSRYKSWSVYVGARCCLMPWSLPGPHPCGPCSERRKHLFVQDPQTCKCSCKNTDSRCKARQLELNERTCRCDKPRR

[2] = target: human VEGF165 (human, UniProt P15692-4 27-191); assay: cell-based or functional assay
[3] = target: T1, human VEGF (hVEGF); assay: SPR
[4] = target: T1, human VEGF (hVEGF); assay: SPR; remark: listed apart in the source
[5] = target: T2, VEGF (as used in the HUVEC migration assay) (Homo sapiens (Human), UniProt P15692 181-395); assay: cell-based or functional assay
T2 sequence: T1 sequence

[6] = target: T1, human VEGF (hVEGF); assay: SPR; remark: listed apart in the source
[7] = target: T1, human VEGF (hVEGF); assay: SPR single-cycle
[8] = target: T2, VEGF (as used in the HUVEC migration …); assay: cell-based or functional assay; remark: listed apart in the source
[9] = target: T1, human VEGF (hVEGF); assay: SPR; remark: listed apart in the source
[10] = target: T1, human VEGF (hVEGF); assay: SPR multiple-cycle

B1: G6.31 LC-F83V (Fab, V domains shown)
VH: EVQLVESGGGLVQPGGSLRLSCAASGFTISDYWIHWVRQAPGKGLEWVAGITPAGGYTYYADSVKGRFTISADTSKNTAYLQMNSLRAEDTAVYYCARFVFFLPYAMDYWGQGTLVTVSS
VL: DIQMTQSPSSLSASVGDRVTITCRASQDVSTAVAWYQQKPGKAPKLLIYSASFLYSGVPSRFSGSGSGTDFTLTISSLQPEDVATYYCQQGYGNPFTFGQGTKVEIK
notes: Fab
B1 was tested, and the “fold increase in affinity” value [1] was 3 fold.

B2: HA100K-G6.31 AARR (other)
VH: B1 VH with Y59R, N84R
VL: B1 VL with V83A, N94A
modifications: free hinge cysteine of the Fab-C heavy chain linked through maleimide to linear 100 kDa hyaluronic acid
B2 was tested, and the “fold increase in potency against the unconjugated parent Fab, pKDR assay” value [2] was roughly 7 fold.

B3: G6.31 LC-N94A.LC-F83A (Fab, V domains shown)
VH: B1 VH
VL: B1 VL with V83A, N94A
notes: Fab; also called LC-F83A, LC-N94A; LCcombo5
B3 was tested, and the Kd [3] was 1.43 nM, the koff [3] was 0.000766 s⁻¹ and the kon [3] was 537000 M⁻¹ s⁻¹. It also gave a Kd [4] of 1.71 nM, a koff [4] of 0.00111 s⁻¹ and a kon [4] of 648000 M⁻¹ s⁻¹. The “IC50 relative to G6.31, VEGF-induced HUVEC migration” value [5] was 5.1 fold, the Kd [6] was 1.71 nM and the koff [6] was 0.00111 s⁻¹. For the same binder, the kon [6] was 648000 M⁻¹ s⁻¹.

B4: G6.31 LC-N94A (Fab, V domains shown)
VH: B1 VH
VL: B1 VL with V83F, N94A
notes: Fab
B4 was tested, and the “Fold difference (relative to G6.31)” value [7] was 0.4 fold, the Kd [7] was 3.93 nM and the koff [7] was 0.00131 s⁻¹. For the same binder, the kon [7] was 334000 M⁻¹ s⁻¹, the “IC50 (read off the curve), VEGF-induced HUVEC migration” value [8] was roughly 7 nM and the “Fold improved (relative to WT)” value [9] was 0.5 fold. For the same binder, the Kd [9] was 1.06 nM, the koff [9] was 0.00169 s⁻¹ and the kon [9] was 1.59e+06 M⁻¹ s⁻¹. It also gave a Kd [10] of 1.06 nM, a koff [10] of 0.00169 s⁻¹ and a kon [10] of 1.59e+06 M⁻¹ s⁻¹. The “IC50 relative to G6.31, VEGF-induced HUVEC migration” value [5] was 5.2 fold, the Kd [6] was 1.06 nM and the koff [6] was 0.00169 s⁻¹. For the same binder, the kon [6] was 1.56e+06 M⁻¹ s⁻¹.
